Test results from patent US20190135932A1 (Pfizer, published 2019).
“And” between values parts separate entries of the source, which are not always exact repeats. Equal values may be shown once.

B1: human monoclonal antibody 11D4 (antibody, V domains shown)
VH: EVQLVESGGGLVQPGGSLRLSCAASGFTFSSYSMNWVRQAPGKGLEWVSYISSSSSTIDYADSVKGRFTISRDNAKNSLYLQMNSLRDEDTAVYYCARESGWYLFDYWGQGTLVTVSS
VL: DIQMTQSPSSLSASVGDRVTITCRASQGISSWLAWYQQKPEKAPKSLIYAASSLQSGVPSRFSGSGSGTDFTLTISSLQPEDFATYYCQQYNSYPPTFGGGTKVEIKR
notes: IgG2 heavy chain, kappa light chain; allotypes G2(n-) and Km3; Alexa Fluor 647 conjugate was used in the species cross-reactivity FACS
B2: human monoclonal antibody 18D8 (antibody, human IgG2, kappa, V domains shown)
VH: EVQLVESGGGLVQPGRSLRLSCAASGFTFDDYAMHWVRQAPGKGLEWVSGISWNSGSIGYADSVKGRFTISRDNAKNSLYLQMNSLRAEDTALYYCAKDQSTADYYFYYGMDVWGQGTTVTVSS
VL: EIVVTQSPATLSLSPGERATLSCRASQSVSSYLAWYQQKPGQAPRLLIYDASNRATGIPARFSGSGSGTDFTLTISSLEPEDFAVYYCQQRSNWPTFGQGTKVEIKR

Tests used:
[1] = biological target: T1, cynomolgus OX40R on activated cynomolgus monkey T cells / PBMCs (cynomolgus monkey); assay: FACS saturation binding on anti-CD3 and anti-CD28 stimulated cynomolgus PBMCs, average over 14 individual monkeys
T1 construct: whole, on cells; also called monkey cells; cynomolgus PBMC's stimulated with anti-CD3 and anti-CD28
Experimental: OX40R-expressing cell lines (see below) or activated primary peripheral blood mononuclear cells (see below) were used to assess binding on both the human and cynomolgus OX40 receptors. Cells were harvested and washed (5×10⁵/tube) using wash buffer at RT°. The wash buffer consisted of PBS, 2% heat-inactivated fetal bovine serum (Hyclone, Logan, Utah) and 0.02% sodium azide (Sigma, St. Louis, Mo.). Next, 100 μl of various concentrations of antibody was added to the cells (starting at 30 ug/ml and using a 3-fold titration) diluted in wash buffer containing 0.005 mg/ml of cytocholasin B (Sigma, St. Louis, Mo.). The cells were gently rocked at RT° for 3 hours. Next, the cells were washed twice and resuspended in 0.5 ml/tube with cold wash buffer and 10,000 events were collected and analyzed using a Becton Dickinson FACSCalibur and CellQuest software (San Jose, Calif.).
Cynomolgus whole blood was obtained using heparinized vacutainer tubes (BD; Franklin Lakes, N.J.) and was diluted 1:4 in PBS. Diluted whole blood was mixed and 15 mls was carefully layered over an equal volume of Histopaque 1077 (Sigma, St Louis, Mo.). […] After a PBS wash, the PBMCs were counted and readjusted to 1×10⁶/ml in tissue culture medium (TCM). […]

[2] = biological target: T2, commercially available fusion protein containing the extracellular domain of the murine OX40R (mouse, UniProt P47741 20-211); assay: ELISA
T2 construct: extracellular domain; Bought; also called mouse OX40R fusion protein
T2 sequence (looked up): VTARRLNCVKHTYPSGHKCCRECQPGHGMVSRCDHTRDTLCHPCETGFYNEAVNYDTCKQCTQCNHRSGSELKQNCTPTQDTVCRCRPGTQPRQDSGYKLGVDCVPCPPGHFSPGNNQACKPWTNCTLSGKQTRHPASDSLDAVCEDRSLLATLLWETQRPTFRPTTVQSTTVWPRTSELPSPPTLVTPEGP

[3] = biological target: T3, mouse OX40R on activated mouse T cells (mouse, UniProt P47741 20-272); assay: FACS, Alexa Fluor 647 conjugated antibody on activated T cells
T3 construct: whole, on cells; also called mouse cells; murine OX40R
T3 sequence (looked up): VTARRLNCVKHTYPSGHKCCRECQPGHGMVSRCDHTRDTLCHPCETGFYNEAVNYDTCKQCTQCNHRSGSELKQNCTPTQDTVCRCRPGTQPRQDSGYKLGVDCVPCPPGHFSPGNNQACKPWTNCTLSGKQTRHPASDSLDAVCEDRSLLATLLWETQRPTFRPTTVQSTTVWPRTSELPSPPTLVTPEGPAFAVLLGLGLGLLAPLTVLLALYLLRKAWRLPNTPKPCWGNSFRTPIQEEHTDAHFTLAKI
Experimental: (§1) Rat whole blood collected in heparinized syringes was diluted 1:3 in warm HBSS. Next, 5 mls was carefully layered over an equal volume of Lympholyte-Rat (Cedarlane Laboratories, Westbury, N.Y.). The tubes were centrifuged for 20 minutes at 1500 RPM. The PBMCs interface was collected, washed twice and the cell pellet was re-adjusted to 2×10⁶/ml in TCM. Two mls of cells were added to each well of a 24 well plate and stimulated for 24-48 hours with PHA (Remel, Lenexa, Kans.) at 10 ng/ml prior to flow cytometry staining.
(§2) Stimulated mouse, rat, rabbit, dog and cynomolgus PBMCs and the 300-19 cell line expressing the cynomolgus OX40 receptor were used to test for human OX40 antibody species cross-reactivity. Human OX40 expressing activated T lymphocytes and OX40 transduced 300-19 cells were used as positive controls. Cells (5.0×10⁵/tube) were washed once in cold wash buffer (PBS, 2% FBS and 0.02% sodium azide) and 100 μl/tube of Alexa Fluor 647 conjugated control or OX40 reactive antibodies at 5 ug/ml was added to each tube. The antibodies were labeled using an Alex Fluor 647 protein labeling kit as described by the manufacturer (Molecular Probes, Eugene, Oreg.). […] Antibody staining was measured and analyzed using a Becton Dickinson FACSCalibur and CellQuest software (San Jose, Calif.).

[4] = biological target: T4, rat OX40R on activated rat T cells (rat, UniProt P15725 20-271); assay: as above
T4 construct: whole, on cells; also called rat cells
T4 sequence (looked up): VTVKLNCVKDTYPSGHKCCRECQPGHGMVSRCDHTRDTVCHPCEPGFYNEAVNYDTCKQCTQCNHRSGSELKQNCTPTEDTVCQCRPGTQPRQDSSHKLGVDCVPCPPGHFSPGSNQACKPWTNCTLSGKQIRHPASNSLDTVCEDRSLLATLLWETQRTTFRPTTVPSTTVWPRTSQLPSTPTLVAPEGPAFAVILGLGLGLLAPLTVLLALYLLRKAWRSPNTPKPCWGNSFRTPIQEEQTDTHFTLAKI
Experimental: as §1, §2

[5] = biological target: T5, human OX40R on activated primary human T cells (human, UniProt P43489 29-277); assay: cell-based or functional assay
T5 sequence (looked up): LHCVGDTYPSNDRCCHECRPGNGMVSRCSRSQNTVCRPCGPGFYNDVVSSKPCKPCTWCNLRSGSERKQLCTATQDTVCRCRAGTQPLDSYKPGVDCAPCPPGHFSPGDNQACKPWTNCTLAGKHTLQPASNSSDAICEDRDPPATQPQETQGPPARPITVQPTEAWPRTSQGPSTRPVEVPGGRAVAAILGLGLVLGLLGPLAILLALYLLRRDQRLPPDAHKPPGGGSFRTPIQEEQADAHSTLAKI

[6] = biological target: T5, human OX40R on activated primary human …; assay: cell-based or functional assay; remark: listed apart in the source

Binder | EC50 [1] [µg/mL] | binding result [2] | binding result [3] | binding result [4] | EC50 of anti-CD3 induced IL-2 production by primary human T cells, donor four [5] [µg/mL] | EC50 of anti-CD3 induced IL-2 production by primary human T cells, donor one [5] [µg/mL] | EC50 of anti-CD3 induced IL-2 production by primary human T cells, donor three [5] [µg/mL] | EC50 of anti-CD3 induced IL-2 production by primary human T cells, donor two [5] [µg/mL] | Augmentation of T Cell Activity (EC50): CD3 induced IL-2 production (N = 4) [6] | Augmentation of T Cell Activity (EC50): Stimulation of IL-2 production by antigen-primed cells (N = 1) [6]
B1 | 0.354 | no binding | no binding (tested: 5 ug/ml) | no binding (tested: 5 ug/ml) | – | – | – | – | – | –
B2 | – | – | – | – | 0.024 | 0.024 | 0.013 | 0.135 | 0.049 µg/ml and 0.33 nM | 0.014 µg/ml and 0.1 nM
